Changes are numbered by the printed parent chain. In names and notes the source's numbering stands. Each block holds one molecule with its values, some of them ahead of it.
T1: GFP-BAF (full length BAF) (UniProt O75531 1-89)
T1 sequence (looked up): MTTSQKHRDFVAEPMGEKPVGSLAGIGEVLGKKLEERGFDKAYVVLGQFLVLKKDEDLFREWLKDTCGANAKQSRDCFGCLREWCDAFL

B1: Human WT emerin fragment from amino acid 67 to amino acid 221 (EmC) (domain or fragment, UniProt P50402 67-221, looked up)
chain: TRGDADMYDLPKKEDALLYQSKGYNDDYYEESYFTTRTYGEPESAGPSRAVRQSVTSFPDADAFHHQVHDDDLLSSSEEECKDRERPMYGRDSAYQSITHYRPVSASRSSLDLSYYPTSSSTSFMSSSSSSSSWLTRRAIRPENRAPGAGLGQDR
B2: FLAG-mature lamin A (aa 1 to aa 646) A529V (natural protein, UniProt P02545 1-646, looked up)
chain: METPSQRRATRSGAQASSTPLSPTRITRLQEKEDLQELNDRLAVYIDRVRSLETENAGLRLRITESEEVVSREVSGIKAAYEAELGDARKTLDSVAKERARLQLELSKVREEFKELKARNTKKEGDLIAAQARLKDLEALLNSKEAALSTALSEKRTLEGELHDLRGQVAKLEAALGEAKKQLQDEMLRRVDAENRLQTMKEELDFQKNIYSEELRETKRRHETRLVEIDNGKQREFESRLADALQELRAQHEDQVEQYKKELEKTYSAKLDNARQSAERNSNLVGAAHEELQQSRIRIDSLSAQLSQLQKQLAAKEAKLRDLEDSLARERDTSRRLLAEKEREMAEMRARMQQQLDEYQELLDIKLALDMEIHAYRKLLEGEEERLRLSPSPTSQRSRGRASSHSSQTQGGGSVTKKRKLESTESRSSFSQHARTSGRVAVEEVDEEGKFVRLRNKSNEDQSMGNWQIKRQNGDDPLLTYRFPPKFTLKAGQVVTIWAAGAGATHSPPTDLVWKAQNTWGCGNSLRTVLINSTGEEVAMRKLVRSVTVVEDDEDEDGDDLLHHHHGSHCSSSGDPAEYNLRSRTVLCGTCGQPADKASASGSGAQVGGPISSGSSASSVTVTRSYRSVGGSGGGSFGDNLVTRSY
B3: FLAG-mature lamin A (aa 1 to aa 646) K542N (natural protein, UniProt P02545 1-646, looked up)
chain: B2 chain with V529A, K542N
B4: FLAG-mature lamin A (aa 1 to aa 646) R527H (natural protein, UniProt P02545 1-646, looked up)
chain: B2 chain with R527H, V529A
B5: FLAG-mature lamin A (aa 1 to aa 646) R435C (natural protein, UniProt P02545 1-646, looked up)
chain: B2 chain with R435C, V529A
B6: Human wild-type lamin A/C fragment from amino acid 411 to amino acid 566 (LamIgF) (domain or fragment, UniProt P02545 411-566, looked up)
chain: GGGSVTKKRKLESTESRSSFSQHARTSGRVAVEEVDEEGKFVRLRNKSNEDQSMGNWQIKRQNGDDPLLTYRFPPKFTLKAGQVVTIWAAGAGATHSPPTDLVWKAQNTWGCGNSLRTALINSTGEEVAMRKLVRSVTVVEDDEDEDGDDLLHHHH
B7: Human WT emerin fragment from amino acid 1 to amino acid 187 (EmN) (domain or fragment, UniProt P50402 1-187, looked up)
chain: MDNYADLSDTELTTLLRRYNIPHGPVVGSTRRLYEKKIFEYETQRRRLSPPSSSAASSYSFSDLNSTRGDADMYDLPKKEDALLYQSKGYNDDYYEESYFTTRTYGEPESAGPSRAVRQSVTSFPDADAFHHQVHDDDLLSSSEEECKDRERPMYGRDSAYQSITHYRPVSASRSSLDLSYYPTSSS

Assays:
[1] = biological target: Human Barrier-to-Autointegration Factor (BAF) with all cysteines mutated in alanine (human) (UniProt O75531); test: ITC
[2] = biological target: Human Barrier-to-Autointegration Factor (BAF) with all cysteines mutated in alanine (human) (UniProt O75531); test: crystal structure
[3] = biological target: the molecule itself; test: negative-staining electron microscopy
[4] = biological target: T1, GFP-BAF (full length BAF); test: proximity ligation
[5] = biological target: B7; test: NMR titration
[6] = biological target: Human Barrier-to-Autointegration Factor (BAF) with all cysteines mutated in alanine (human) (UniProt O75531); test: ITC; remark: listed apart in the source

- fold decrease of affinity against LamIgF WT [1]: 5 fold
Molecule: LamIgF mutant R471C (from UniProt P02545 411-566) (domain or fragment)

- stoichiometry N [2]: 2
Molecule: Human Barrier-to-Autointegration Factor (BAF) with all cysteines mutated in alanine (from UniProt O75531 2-76) (natural protein)

- fold decrease of affinity against LamIgF WT [1]: 5 fold
Molecule: LamIgF mutant A529V (from UniProt P02545 411-566) (domain or fragment)

Molecule: B1
- binding result [3]: binds

Molecule: B2
- PLA signals as percent of WT lamin A [4]: ~50 % of WT

Molecule: B3
- PLA signals as percent of WT lamin A [4]: ~50 % of WT

Molecule: B4
- PLA signals as percent of WT lamin A [4]: ~50 % of WT

Molecule: B5
- PLA signals as percent of WT lamin A [4]: ~50 % of WT

Molecule: B6
- binding result [5]: binds

Molecule: B7
- Kd [6]: 700 nM
- binding result [3]: binds

— PMC6212729 (Nucleic Acids Research, 2018)
